For 18 sequences, protein production results are on record in a protein production outcome set (Wang et al. 2014).

A short description of this series: label from the status in PepcDB records.
For “MENKQVSTTQAAAKEPLIGYVHSIETFGSVDGPGIRYVAFLQGCHMRCQYCHNPDTWKLNVGDQMTADEILEDAAKYRAFWGKTGGITVSGGESLVQIDFILDLFEKAKAMNISTCLDTSGQPFTREQPFFDKFERLMKVTDISLVDIKHIDSAKHKQLTQYGNENILDMIQYMAQHHDDMWIRHVLVPQRTDYDEDLKKLGDYIAKIPNDVVQKVEVLPYHTLGVKKYHEMKIKYRLEGIESPTQDRVANAEKLLHTADYNGYKTWMPLPKL”, the protein production result is “failed”.
As to “DLAPSRVESLTLIMTSSGAQGLPMPNAALLQLLARRGAPDREVALEQQADLLAALGSPQVKDDREQLLHQAAVSYDRAFNPEGVKRQIMAILAEPSRVELLNRLRLPVLVVHGTADPLLPVMHGVHVAAHIQGSQLRLIPGLAHRFQEAFKAPLLGAVLPYLKA”, the protein production result is recorded as “failed”.
As for “MTETKTIRFLSIIGCLLAGMAASCSSRQVAPNEEGISVQKMTGFPEGEPGFSLGVSACYAGIYQGELLIAGGCNFPETPAAEGGKKKFYQGIYAADASADSVFVWRKVGQLPVAAAYGVSVSTPRGIVCVGGSNENGSLSTVYRLSLSDDKQAVIVDTLPSLPCTMDNMSGSVVDYTLFVAGGNVNGKPSNGLYCLNLGNPETGWQQLPDFPGAPRVQPVCVGQRKENETLLYLWGGFSGAFDGRSATLSTDGYCYSPSLQQWQPVSTPIGSDSVPVALGGGAGIALTDSLILCTGGVNKDIFLSALQREEMMKAAVTGGNQAAVDSLKSEAKTYMLHPAEWYRFNDRILIYNTRRDKWEEAVRSQDVARAGAALTTGQGQTFFNINGELKPGIRTPEIAKIMID”, the entry is “failed”.
Then “MSNHQKRLSVPNSWPVERKTATFTVKAGAGPHGESGVPLLIVLRDVLGYADNRKEARYALNEDNVLINGKAISDEERPVGMFDILAFTEREEYYRVFPGEGGRLALTAIDPDAAQSKLGKIVTKTHVSGGDVQLGLHDGETLIVEDDQTYDAGDSIVVGNEDGEVVAHFEYEEGALVTAVDGAHAGEVGEVEEIQVTPGSAQNNVIVSQDEGEGFETVEEYVVVIDENFTGDDELEHHHHHH”, with “not failed”; and “MADQLYLENIDEFVTDQNKIVTYKWLSYTLGVHVNQAKQMLYDYVERKRKENSGAQLHVTYLVSGSLIQNGHSCHKVAVVREDKLEAVKSKLAVTASIHVYSIQKAMLKDSGPLFNTDYDILKSNLQNCSKFSAIQC”, with “failed”.
As for “MSTLKLFVHNHSSKGDQSFLKTITFAITHFTVAFTVAYLLTGDILIGSLIAMVEPAINTVAYFFHEKIWARHQRNTTANAMNLRQNTH”, the protein production entry was “failed”.
As for “MRRRKYPWKQADILIHRYCRRLTTGQRLAVIAVAFALFMAGCLYMLLSSLLGFGETGGGLQIEHIRPLDIKPEKDTTIHFKDYYDYGHSENQDTVRLVC”, the entry is “failed”.
Then “MQPPSHAPRQLAAADLAVGQVVAQREIRLDAQAFAQFAALTGDAHPIHYDAGYAQRQGLRAPIAHGLLLVAISALGATPLSAQLHDAMVAMVGVEAVFMRPVYVDETVQCVYRVAQIEHVAKGRSKTTIAVSIHTTDAPPDAARQAHCVVHLTFLLKTHLQG”, with “failed”.
As for “MRSVTVSGFLTLIISGIMLIPSPAYSKIDTTLNTSSFIGAYLAGRVANHENKTDLAIKYFKKALTYKPENIETQVEMLEAMLFSGAFKEAVKQAQKLKKQGITNPFVSLTLSIESLIKKDYNKAKILLQLKTLPAANNPIPELIGAWATFGSGYQSQAITHLQKIQGPAWYKLFINYHLALMCDLAGHKQNAQKYFTQALNTQQATLIAPNTYEHIIIAYASFQLRSKMRIQALQTLKHGEQMLPGREIFKNIREKIEKGASLERLIKTPQQGTGEVLYNFGTTLNHKNSQRIARIFTQLSLILSPENDAIMFHLANISAKVNDLNQAIKLYRSLPQSSPYYRVGQLQLAFILANNNNHSEAIKLLTSLKKKNPNDRHILITLSALYMQDNKFTEATKTLDRAIAQITNFQQDDWKLFYQRGIAFERLQQWSKAENDLRKALDFFPNQPQVLNYLGYSLVERGEKLEESLHMLQKASTLQPQNSHILDSLGWAYYKLKQYNQAVQILGNAVRLQPEDPTLNDHLGDVYWRVGRKREAMFQWNHAIDGEAKNSKEIQEKLKFGLQ”, the entry is “failed”; as for “INIEIAYAFPERYYLKSFQVDEGITVQTAITQSGILSQFPEIDLSTNKIGIFSRPIKLTDVLKEGDRIEIYRPLLADPKEIRRK”, “not failed”; as for “MPNSRLEGELPGGGVVTFDTDLPIAAHADEIADLIKHHQVVVVAGETGSGKTTQLPKICLALGRRQIAHTQPRRIAARSVAERVAEEMGVELGEQVGYQVRFTRRASSDTALTVMTDGVLLAEISHDRDLCAHDTIIIDEAHERSLNIDFLLGYLKQLLPRRPDLKVIITSATIDTARFSAHFDDAPVIEVSGRTYPVEVRYRPLDPSEQIRPDDEDDIDDEDELLHRPSAPSLTSPDDEVVDQVTGICRAVQELCREESGDILVFLAGEQEIRETAEALADLNLSNTEVLPLFARLSAAEQHRVFTPHTGRRIVLATNVAETSLTVPGIRYVIDPGTARISRYSVRTKVQRLPIEPVSQASANQRAGRCGRVAPGICIRLYSQTSFESRPEFTEPEILRTNLAAVILQMAQARLGAITDFPFVEAPDRSRINDGIRLLDELGALKPGHRDASRLTKIGHQLARVPLDPRLGRMLLEGARQGSLAEVLVIVAALSIRDVRERPADKREEADAFHRRFATEANLLQTLQAADNTDNNQVGDWSQVRRQHIHQEAANTAKPGPPARHTPHTRGKISPRPQAGGIDEGGDIMAIHRLWRYLRHQRRQMGSSAFRRMCRAEYINYLRVREWDDLHGQLRQIAKELHLEVNRTSAPTDRVLVALLSGLLSHIGLVQVRQPAKRHGQRPGPQEYLGARGTKFAINPGSLLARKSPELVVAVELVETSRLWARTVAAVQPEWVEEVAGPLIRRSWAVPHWAASTASVVATERGTLFGVPLWADRRVTYGRIDPVASRQIFIRSALVERNWRSDHGFLKHNDRVRDEAADLEERSRQRGLVADDDAIFAFYDRRIPDGIVSGSHFDAWWRRVQDRHQLDLSIDDLVDSGSVDADAFPDHWKVGNLELPVRYVFEPGSGHDGVTVTIPLALLNQVPTAPFSWQVPGLRTELATELIRALPKRIRTQLVPAPDRARAALTWLEDHDADRHAPFTNELGRALRTLTGVIINPDDWNIAAIPAHLRIGFDITDAEGRPVGKKSKKNGKDKLKGSQPAPIARSEDLDALQTDLAPKVSQSLTKAAGQPQIHGAKEWTFDPIPKRVDLSRKGPDAVGYPCLVDEGDSVGTTVLDTPRAQRTSHASGVVKLLVLNLPDPTKWVVTHMDNATKLALATSPYPSVPALLADARHKAVASVAQEKAGDLSGIRDKKTFDDLALVVRQDQADRMARVVRTAGRILSRVVAARQALATVSDPAIHADIVAQIDDLVFENFISATPDPWYDDMPRWIQGVSVRIESLMTNPSRDPRQMAELEPLLADYDALCEEQPAGKLPAEVEEIGFMLEELRVQYFAQKLGTRVSVSPKRIRMAIAKLS”, “failed”.
As to “MKLAEALILRADLQKELMSLKNRINQNLLVQEGEKPSENPYTLYDEILLKVSELEGLILKINKTNSNYITSNNESISDLIVKRDMLGKKISILKEIAEEATVKVNRYSQTEIKIFSAMKVDQLQREINKYSKEYRELDTKLQGLNWTIDLME”, the protein production result was “failed”.
As for “SAKTDKLAQFLDSGIYESDEFNWFFLDTVRITNRSYTRFKVSPSAYYSRFFNSKQLNQHSSESNPKKRKRKQKNSSFHLPSVGEQASNLRHQEARLFLSKAHESFLKEIELLSLTKGLSDDNDDDDSSLLNKCCDDEVSFIELGGVWQAPFYEITLSFNLHCDNEGESCNEQRVFQVFNNLVVNEIGEEVEAEFSNRRYIMPRNSCFYMSDLHHIRNLVPEKISHYHIGRRCNSLIDVIYAAKSEEGYNLIVIDPPWENASAHQKSKYPTLPNQYFLSLPIKQLAHAEGALVALWVTNREKLLSFVEKELFPAWGIKYVATMYWLKVKPDGTLICDLDLVHHKPYEYLLLGYHFTELAGSEKRSDFKLLDKNQIIMSIPGDFSRKPPIGDILLKHTPGSQPARCLELFAREMAAGWTSWGNEPLHFQDSRYFLKV”, the entry is “failed”.
Then “MEKVHLYWNLRYNCWFLVSVEHLWYSQGKVPGVHGFVILPVFLTLLEQPFSTTKKDITQLRSPSSESLSSSNAVNYRAIRGSHSYFGIYGI”, with “failed”; and “MDCKKFIQMVEEKKRRVLEKQEAPLKWEQKLEAAANAKADTETKVKRSKGPKRKQRAASESSSESDSSSEVRRKSRRSHNKHRRHAHSDSDDSDRRKEKKSRRQKRRSLSPSDDSTGDYESGSEDELRMKIKHHRRHKWHSSRKTCDDDSTEDVRRKHLKHHRRSEVVTSSDSEEESGRRRRGKYHRHNRGSASSSGSEEDSGKSMKRRQHKRHRLAESSSEEDGAMRRTRHHKHGRDSASESDGRR”, with “failed”.
As for “MKWIMKLRWAILAFWLAAAVVLMFIAPPMADLVREKGELKLPDGYPSSLATEMQKKHNPDDKGSAYIAVYTADHKLTGTELNDIQKSLDSIEKDKDELHVTNVLSSFNQPELKDKFLAKDGKTMVASLTVDDTDASVKSIRNALDKKMDVKGVDTYLTGNKLIQEDVVQGSEDGLHKTEGITVVFILVVLFLVFRSAVAPFIPLITVGISYLVAQSTVAFLIDIFNFPVSTYTQIFMVCIMFGIGTDYCILLMSRFKEEMGAGLNPREAVHATYRTAGKTVIYSGVAVLVAFTSLYFVQFDLYRSAVAVGVGIVVLLAALYTLVPFFMSTLGTHLFWPLNKNISHKENKIWGAAGKFTFARPWIALLIVAAITLPPILLHTGTESFNSLDEISDKYPSKKGFEIVSDSFGAGQVAPTQIFIENDDNMRTTDYIAQIEKISDDLSHLKGIDMVMSASRPAGKRVDDIYIKNQAGQVNDGVGQATDGVGEVKKGLDSASSELKKSEPALDKAVAGVGDLQKGTVATQEGINQLQTALAQIQKGIESGATGAGDLKQGVAEAKSQLATLQNGEAQIQAGYAEIQKNLQNVADQLKGFENPSSQAIDTSKLEEQFKKIGASFQAFAAAHPEVRNDPRFQKLAADIQGLETAGNELKTSAGQQMAALQAKMKELNQGIQQLATAMNQLNEQSKQISDGLSAFSTGLGQIETGLDQLEKGLNQAAVGQGQVVSKMPEVSNALTQIAAGQGALKDGFAGISGQMGQLTDGLTSGADGLGKVESGLNTANGLIDDWSKVPYASSGIYVPDALLKNADFQKVLDQYISSDGKLATINVILTKNPYSNEAMDSIDDINDQLAASMKGTKLENAKIGIGGMTSANYDTRDMSTADYHLVLVIVLASVFVTLVIVLRSLVMPIYLIASLVLTYFAALGFAEIIFMRILGYSGLTWATPFFGFVVLVALGIDYSIFLMSRFNEYNGLSVRDRMIKAMKNMGGVIFSAVIILGGTFAAMMPAGVLSLLEIATVVLIGLVLYAVVILPLFVPVMVKLFGRGNWWPFITRKGDHQENVPPKK”, the entry is “failed”; as for “MTQKVALIGFGGVAQGFIQILRERGEELPEHIQVVSITDWRRGAVHDPNGLDLDFIAKIIETDGTFEHYPERSGVIKGWNSFETIQQTNADTIVEVTFTDVLTGQPAIDHCKEALRLGKHVVTTNKGPIAVAYQELKELADANGVQLLYEGTVMSGTPALRLPEHTLIGNNIQEVKGILNGTTNYILTEMERGKTFEQALQDAQTLGYAEADPTSDVEGYDVLYKVVILANVMMGIPLKPSDVERVGISHLTPRDIKDAHSAGERWKLIGRVKKEGERTMATVRPERLPLTDPLANINGAINAITYECDISGPITLIGAGAGVKETGFALLIDLLHVNRLGE”, “failed”.
Take “MITETQLTAIQTYALQKLAHDHSGHGRDHLQRVNRLARRLAKDEGANLNLTLAAAWLHDVIDDKLMANPAKAHQDLIVQLNAQNVTADDQTAIFAIIDHMSFSKSFNGPQKLSLEGQVVQDADRLDAIGAIGIARALYYSGHVGEKIYDPAIAPREHMTREQYRHQPGTAINHFYEKLFKLAALMNTDTAKALAAHRTAVMHEFVDQFKAEWTADDKALEHHHHHH”: the protein production result is on record as “not failed”.
